This assay has as its target T1, hGPR81 (SSTR1) (Homo sapiens, UniProt P30872).
T1 construct: in vitro transcribed RNA injected into Xenopus laevis oocytes
The assay is described as follows: Ca^2+ efflux in oocytes injected with hGPR81 RNA. Type of assay: cell-based. The settings on record: laevis oocytes injected with in vitro transcribed RNA. The method, then:
Since the presence of a short cytoplasmic loop connecting transmembrane segments M5-M6 is a feature of G protein-coupled receptors that bind peptide hormones and neuropeptides (E. M. Ross, 1990), peptides known to regulate hormone secretion from pancreatic islets were tested as ligands for hGPR81. Initial attempts to identify the ligand for hGPR81 by injecting RNA transcribed in vitro into fenopus laevis oocytes (Kayano et al., 1990) and assessing changes in basal or stimulated cAMP levels in response to […] [calcitonin-gene-related peptide, gastric inhibitory polypeptide, glucagon, glucagon-like peptide 1-(7-36 amide), and vasoactive intestinal peptide], or Ca^2+ efflux (Williams et al., 1988) (angiotensin II, bombesin, cholecystokinin, and vasopressin) were unsuccessful. The binding of radiolabeled peptides (galanin, glucagon and somatostatin) to COS-7 cells transiently expressing hGPR81 was attempted, as well.

T1 sequence (P30872 whole entry): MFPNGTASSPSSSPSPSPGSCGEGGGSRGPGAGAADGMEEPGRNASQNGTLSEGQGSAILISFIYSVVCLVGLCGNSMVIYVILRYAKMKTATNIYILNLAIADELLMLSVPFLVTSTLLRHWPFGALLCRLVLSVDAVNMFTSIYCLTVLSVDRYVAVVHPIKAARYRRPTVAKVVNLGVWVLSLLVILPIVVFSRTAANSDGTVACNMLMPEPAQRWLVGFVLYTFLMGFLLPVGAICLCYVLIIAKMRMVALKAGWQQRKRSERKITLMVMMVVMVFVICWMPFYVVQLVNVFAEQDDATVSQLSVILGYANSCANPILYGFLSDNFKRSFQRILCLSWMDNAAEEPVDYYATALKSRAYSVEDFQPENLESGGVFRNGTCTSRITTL

B1: cholecystokinin: peptide known to regulate hormone secretion from pancreatic islets (peptide, UniProt P06307 21-115, looked up)
Cholecystokinin: QPVPPADPAGSGLQRAEEAPRRQLRVSQRTDGESRAHLGALLARYIQQARKAPSGRMSIVKNLQNLDPSHRISDRDYMGWMDFGRRSAEEYEYPS
modifications: Cholecystokinin
notes: peptide known to regulate hormone secretion from pancreatic islets
On to B1, for which the “identification as ligand for hGPR81 by Ca^2+ efflux” value is given as “unsuccessful”.

Values taken from patent publication US5723299A, “Somatostatin receptors” (Arch Development Corporation, priority 1995, dated 1998).
